From patent US20240261333A1, “NOVEL TARGETS FOR ENHANCING ANTI-TUMOR IMMUNITY” (THE BROAD INSTITUTE, INC., priority 2021, published 2024) come the findings set out here.

To fix the notation:
T1: B3GNT2 (Homo sapiens, UniProt Q9NY97)
T1 construct: The respective ORFs of candidate genes [CD274 (NM_014143), MCL1 (NM_021960), JUNB (NM_002229), and B3GNT2 (NM_006577)] were synthesized; expressed in transfected cells; host or cells: A375 melanoma cells (lentiviral ORF overexpression)
T1 sequence (Q9NY97 1-397): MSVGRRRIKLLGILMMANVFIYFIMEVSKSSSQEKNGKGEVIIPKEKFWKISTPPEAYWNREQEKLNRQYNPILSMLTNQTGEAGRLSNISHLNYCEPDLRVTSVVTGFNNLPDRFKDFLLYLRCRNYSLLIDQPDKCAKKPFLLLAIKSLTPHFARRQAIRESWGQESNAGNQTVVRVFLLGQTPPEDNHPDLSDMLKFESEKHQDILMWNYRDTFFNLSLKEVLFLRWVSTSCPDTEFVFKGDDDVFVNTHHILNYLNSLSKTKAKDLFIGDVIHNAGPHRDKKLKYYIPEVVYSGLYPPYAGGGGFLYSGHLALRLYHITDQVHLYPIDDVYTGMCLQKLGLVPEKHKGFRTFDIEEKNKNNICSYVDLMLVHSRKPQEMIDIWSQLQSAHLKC

B1: PPFIBP1 (protein)
chain: MMSDASDMLAAALEQMDGIIAGSKALEYSNGIFDCQSPTSPFMGSLRALHLVEDLRGLLEMMETDEKEGLRCQIPDSTAETLVEWLQSQMTNGHLPGNGDVYQERLARLENDKESLVLQVSVLTDQVEAQGEKIRDLEFCLEEHREKVNATEEMLQQELLSRTSLETQKLDLMAEISNLKLKLTAVEKDRLDYEDKFRDTEGLIQEINDLRLKVSEMDSERLQYEKKLKSTKDELASLKEQLEEKESEVKRLQEKLVCKMKGEGVEIVDRDIEVQKMKKAVESLMAANEEKDRKIEDLRQCLNRYKKMQDTVVLAQGKDGEYEELLNSSSISSLLDAQGFSDLEKSPSPTPVMGSPSCDPFNTSVPEEFHTTILQVSIPSLLPATVSMETSEKSKLTPKPETSFEENDGNIILGATVDTQLCDKLLTSSLQKSSSLGNLKKETSDGEKETIQKTSEDRAPAESRPFGTLPPRPPGQDTSMDDNPFGTRKVRSSFGRGFFKIKSNKRTASAPNLAETEKETAEHLDLAGASSRPKDSQRNSPFQIPPPSPDSKKKSRGIMKLFGKLRRSQSTTFNPDDMSEPEFKRGGTRATAGPRLGWSRDLGQSNSDLDMPFAKWTKEQVCNWLMEQGLGSYLNSGKHWIASGQTLLQASQQDLEKELGIKHSLHRKKLQLALQALGSEEETNHGKLDFNWVTRWLDDIGLPQYKTQFDEGRVDGRMLHYMTVDDLLSLKVVSVLHHLSIKRAIQVLRINNFEPNCLRRRPSDENTIAPSEVQKWTNHRVMEWLRSVDLAEYAPNLRGSGVHGGLMVLEPRFNVETMAQLLNIPPNKTLLRRHLATHFNLLIGAEAQHQKRDAMELPDYVLLTATAKVKPKKLAFSNFGNLRKKKQEDGEEYVCPMELGQASGSASKKGFKPGLDMRLYEEDDLDRLEQMEDSEGTVRQIGAFSEGINNLTHMLKEDDMFKDFAARSPSASITDEDSNV
B2: TELO2 (protein)
chain: MEPAPSEVRLAVREAIHALSSSEDGGHIFCTLESLKRYLGEMEPPALPREKEEFASAHFSPVLRCLASRLSPAWLELLPHGRLEELWASFFLEGPADQAFLVLMETIEGAAGPSFRLMKMARLLARFLREGRLAVLMEAQCRQQTQPGFILLRETLLGKVVALPDHLGNRLQQENLAEFFPQNYFRLLGEEVVRVLQAVVDSLQGGLDSSVSFVSQVLGKACVHGRQQEILGVLVPRLAALTQGSYLHQRVCWRLVEQVPDRAMEAVLTGLVEAALGPEVLSRLLGNLVVKNKKAQFVMTQKLLFLQSRLTTPMLQSLLGHLAMDSQRRPLLLQVLKELLETWGSSSAIRHTPLPQQRHVSKAVLICLAQLGEPELRDSRDELLASMMAGVKCRLDSSLPPVRRLGMIVAEVVSARIHPEGPPLKFQYEEDELSLELLALASPQPAGDGASEAGTSLVPATAEPPAETPAEIVDGGVPQAQLAGSDSDLDSDDEFVPYDMSGDRELKSSKAPAYVRDCVEALTTSEDIERWEAALRALEGLVYRSPTATREVSVELAKVLLHLEEKTCVVGFAGLRQRALVAVTVTDPAPVADYLTSQFYALNYSLRQRMDILDVLTLAAQELSRPGCLGRTPQPGSPSPNTPCLPEAAVSQPGSAVASDWRVVVEERIRSKTQRLSKGGPRQGPAGSPSRFNSVAGHFFFPLLQRFDRPLVTFDLLGEDQLVLGRLAHTLGALMCLAVNTTVAVAMGKALLEFVWALRFHIDAYVRQGLLSAVSSVLLSLPAARLLEDLMDELLEARSWLADVAEKDPDEDCRTLALRALLLLQRLKNRLLPPASP
B3: YTHDF2 (protein)
chain: SASSLLEQRPKGQGNKVQNGSVHQKDGLNDDDFEPYLSPQARPNNAYTAMSDSYLPSYYSPSIGFSYSLGEAAWSTGGDTAMPYLTSYGQLSNGEPHFLPDAMFGQPGALGSTPFLGQHGFNFFPSGIDFSAWGNNSSQGQSTQSSGYSSNYAYAPSSLGGAMIDGQSAFANETLNKAPGMNTIDQGMAALKLGSTEVASNVPKVVGSAVGSGSITSNIVASNSLPPATIAPPKPASWADIASKPAKQQPKLKTKNGIAGSSLPPPPIKHNMDIGTWDNKGPVAKAPSQALVQNIGQPTQGSPQPVGQQANNSPPVAQASVGQQTQPLPPPPPQPAQLSVQQQAAQPTRWVAPRNRGSGFGHNGVDGNGVGQSQAGSGSTPSEPHPVLEKLRSINNYNPKDFDWNLKHGRVFIIKSYSEDDIHRSIKYNIWCSTEHGNKRLDAAYRSMNGKGPVYLLFSVNGSGHFCGVAEMKSAVDYNTCAGVWSQDKWKGRFDVRWIFVKDVPNSQLRHIRLENNENKPVTNSRDTQEVPLEKAKQVLKIIASYKHTTSIFDDFSHYEKRQEEEESVKKERQGRGK
B4: HNRNPM (protein)
chain: AAGVEAAAEVAATEIKMEEESGAPGVPSGNGAPGPKGEGERPAQNEKRKEKNIKRGGNRFEPYANPTKRYRAFITNIPFDVKWQSLKDLVKEKVGEVTYVELLMDAEGKSRGCAVVEFKMEESMKKAAEVLNKHSLSGRPLKVKEDPDGEHARRAMQKVMATTGGMGMGPGGPGMITIPPSILNNPNIPNEIIHALQAGRLGSTVFVANLDYKVGWKKLKEVFSMAGVVVRADILEDKDGKSRGIGTVTFEQSIEAVQAISMFNGQLLFDRPMHVKMDERALPKGDFFPPERPQQLPHGLGGIGMGLGPGGQPIDANHLNKGIGMGNIGPAGMGMEGIGFGINKMGGMEGPFGGGMENMGRFGSGMNMGRINEILSNALKRGEIIAKQGGGGGGGSVPGIERMGPGIDRLGGAGMERMGAGLGHGMDRVGSEIERMGLVMDRMGSVERMGSGIERMGPLGLDHMASSIERMGQTMERIGSGVERMGAGMGFGLERMAAPIDRVGQTIERMGSGVERMGPAIERMGLSMERMVPAGMGAGLERMGPVMDRMATGLERMGANNLERMGLERMGANSLERMGLERMGANSLERMGPAMGPALGAGIERMGLAMGGGGGASFDRAIEMERGNFGGSFAGSFGGAGGHAPGVARKACQIFVRNLPFDFTWKMLKDKFNECGHVLYADIKMENGKSKGCGVVKFESPEVAERACRMMNGMKLSGREIDVRIDRNA
B5: S100A7 (protein)
chain: SNTQAERSIIGMIDMFHKYTRRDDKIEKPSLLTMMKENFPNFLSACDKKGTNYLADVFEKKDKNEDKKIDFSEFLSLLGDIATDYHKQSHGAAPCSGGSQ
B6: PHGDH (protein)
chain: AFANLRKVLISDSLDPCCRKILQDGGLQVVEKQNLSKEELIAELQDCEGLIVRSATKVTADVINAAEKLQVVGRAGTGVDNVDLEAATRKGILVMNTPNGNSLSAAELTCGMIMCLARQIPQATASMKDGKWERKKFMGTELNGKTLGILGLGRIGREVATRMQSFGMKTIGYDPIISPEVSASFGVQQLPLEEIWPLCDFITVHTPLLPSTTGLLNDNTFAQCKKGVRVVNCARGGIVDEGALLRALQSGQCAGAALDVFTEEPPRDRALVDHENVISCPHLGASTKEAQSRCGEEIAVQFVDMVKGKSLTGVVNAQALTSAFSPHTKPWIGLAEALGTLMRAWAGSPKGTIQVITQGTSLKNAGNCLSPAVIVGLLKEASKQADVNLVNAKLLVKEAGLNVTTSHSPAAPGEQGFGECLLAVALAGAPYQAVGLVQGTTPVLQGLNGAVFRPEVPLRRDLPLLLFRTQTSDPAMLPTMIGLLAEAGVRLLSYQTSLVSDGETWHVMGISSLLPSLEAWKQHVTEAFQFHF

In the first experiment the target is T1, B3GNT2. In words: Co-IP of FLAG-tagged B3GNT2 followed by mass spectrometry. Type of experiment: cell-based. Also noted: C-term IgG / C-term flag: unit not given here. The conditions noted are these: Co-IP followed by mass spectrometry of B3GNT2; C-term tag, FLAG pull-down. Summed up:
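FLAG-tagged B3GNT2 immunoprecipitated from cell lysate (HEPES, 1% Triton X-100, 150 mM NaCl) with anti-FLAG versus […], overnight at 4° C, then captured on Protein A/G magnetic beads for 4 h. Two biological replicates per condition. Peptides fractionated and analyzed by nano-LC on an Orbitrap Elite in data-dependent mode.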
The molecule B1 had a C-term flag of 3.

Regarding B2, the C-term flag was 3.

For B3, the C-term flag is 4.

B4 had a C-term flag of 8.

With B5, the C-term flag is recorded as 5.

The same experiment, now with this note: Co-IP followed by mass spectrometry of B3GNT2; C-term tag, IgG pull-down.
With B1, the “C-term IgG” value was 0.

On to B2, for which the “C-term IgG” value was determined as 0.

For B3, the “C-term IgG” value was determined as 2.

With B4, the “C-term IgG” value is 5.

B5: the “C-term IgG” value is 3.

Staying with this experiment, now noted: Co-IP followed by mass spectrometry of B3GNT2; N-term tag, FLAG pull-down.
As to B1, the “N-term FLAG” value turned out to be 2.

Take B2: the “N-term FLAG” value is on record as 2.

Take B3: the “N-term FLAG” value is 5.

For B4, the “N-term FLAG” value is recorded as 6.

Consider B5, for which the “N-term FLAG” value is 3.

Staying with this experiment, now noted: Co-IP followed by mass spectrometry of B3GNT2; N-term tag, IgG pull-down.
B1: the “N-term IgG” value is 0.

Take B2: the “N-term IgG” value was found to be 0.

In the case of B3, the “N-term IgG” value is recorded as 4.

Consider B4, for which the “N-term IgG” value amounted to 5.

As for B5, the “N-term IgG” value stood at 2.

The same experiment, now with this note: Co-IP with FLAG antibody, C-terminally FLAG-tagged B3GNT2; mass spectrometry count, unit not given.
B6 yielded a C-term flag of 7.

The experiment is the same for the next values; noted with them: Co-IP with FLAG antibody, N-terminally FLAG-tagged B3GNT2; mass spectrometry count, unit not given.
B6: the “N-term FLAG” value was found to be 29.

The same experiment, now with this note: Co-IP with IgG control antibody, C-terminally FLAG-tagged B3GNT2; mass spectrometry count, unit not given.
Turning to B6, the “C-term IgG” value is given as 0.

Staying with this experiment, now noted: Co-IP with IgG control antibody, N-terminally FLAG-tagged B3GNT2; mass spectrometry count, unit not given.
Consider B6, for which the “N-term IgG” value turned out to be 0.
